Measured values published in the supplement of paper PMC5998384.

Experiments:
[1] = test system: HeLa Kyoto; experiment: solubility in G1/S (NP-40 vs SDS abundance) (log2 ratio); higher = more soluble; conditions: cell cycle stage: G1/S
[2] = test system: HeLa Kyoto; experiment: melting temperature (median over replicates), in situ; higher = more thermally stable
[3] = test system: HeLa Kyoto; experiment: solubility change mitosis vs G1/S (difference of NP-40 vs SDS log2 ratios) (log2 ratio difference); higher = more soluble in mitosis
[4] = test system: HeLa Kyoto; experiment: thermal stability score vs G1/S (z-score of summed log2 fold changes over temperatures); higher = more thermally stable than in G1/S
[5] = cell cycle stage: early G1 (4.5 h after nocodazole release)
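Throughout, for melting temperature (median over replicates), in situ: HeLa Kyoto cells synchronized by double thymidine or nocodazole block, proteins quantified by TMT10plex mass spectrometry, three independent biological replicates.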
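Throughout, for solubility change mitosis vs G1/S (difference of NP-40 vs SDS log2 ratios): synchronized HeLa Kyoto cells (double thymidine block for G1/S, nocodazole release for mitosis), protein amounts in NP-40 versus SDS lysates quantified by mass spectrometry, three biological replicates.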
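Throughout, for solubility in G1/S (NP-40 vs SDS abundance): HeLa Kyoto cells arrested at G1/S by double thymidine block, proteins quantified by TMT10plex mass spectrometry in mild NP-40 versus SDS extracts, three biological replicates.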
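Throughout, for thermal stability score vs G1/S (z-score of summed log2 fold changes over temperatures): synchronized HeLa Kyoto cells, proteins quantified by TMT10plex mass spectrometry, three biological replicates, mitosis taken 0.5 h after nocodazole release, G1/S directly after double thymidine block.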

Sequence	solubility in G1/S (log2) [1]	melting temperature ([2]; cell cycle stage: G1/S) [°C]	melting temperature ([2]; cell cycle stage: mitosis) [°C]	solubility change mitosis (log2) [3]	thermal stability score [4, 5]	thermal stability score ([4]; cell cycle stage: mitosis)
MVKLDIHTLAHHLKQERLYVNSEKQLIQRLNADVLKTAEKLYRTAWIAKQQRINLDRLIITSAEASPAECCQHAKILEDTQFVDGYKQLGFQETAYGEFLSRLRENPRLIASSLVAGEKLNQENTQSVIYTVFTSLYGNCIMQEDESYLLQVLRYLIEFELKESDNPRRLLRRGTCAFSILFKLFSEGLFSAKLFLTATLHEPIMQLLVEDEDHLETDPNKLIERFSPSQQEKLFGEKGSDRFRQKVQEMVESNEAKLVALVNKFIGYLKQNTYCFPHSLRWIVSQMYKTLSCVDRLEVGEVRAMCTDLLLACFICPAVVNPEQYGIISDAPINEVARFNLMQVGRLLQQLAMTGSEEGDPRTKSSLGKFDKSCVAAFLDVVIGGRAVETPPLSSVNLLEGLSRTVVYITYSQLITLVNFMKSVMSGDQLREDRMALDNLLANLPPAKPGKSSSLEMTPYNTPQLSPATTPANKKNRLPIATRSRSRTNMLMDLHMDHEGSSQETIQEVQPEEVLVISLGTGPQLTPGMMSENEVLNMQLSDGGQGDVPVDENKLHGKPDKTLRFSLCSDNLEGISEGPSNRSNSVSSLDLEGESVSELGAGPSGSNGVEALQLLEHEQATTQDNLDDKLRKFEIRDMMGLTDDRDISETVSETWSTDVLGSDFDPNIDEDRLQEIAGAAAENMLGSLLCLPGSGSVLLDPCTGSTISETTSEAWSVEVLPSDSEAPDLKQEERLQELESCSGLGSTSDDTDVREVSSRPSTPGLSVVSGISATSEDIPNKIEDLRSECSSDFGGKDSVTSPDMDEITHGAHQLTSPPSQSESLLAMFDPLSSHEGASAVVRPKVHYARPSHPPPDPPILEGAVGGNEARLPNFGSHVLTPAEMEAFKQRHSYPERLVRSRSSDIVSSVRRPMSDPSWNRRPGNEERELPPAAAIGATSLVAAPHSSSSSPSKDSSRGETEERKDSDDEKSDRNRPWWRKRFVSAMPKAPIPFRKKEKQEKDKDDLGPDRFSTLTDDPSPRLSAQAQVAEDILDKYRNAIKRTSPSDGAMANYESTGDNHDRDLSSKLLYHSDKEVMGDGESAHDSPRDEALQNISADDLPDSASQAAHPQDSAFSYRDAKKKLRLALCSADSVAFPVLTHSTRNGLPDHTDPEDNEIVCFLKVQIAEAINLQDKNLMAQLQETMRCVCRFDNRTCRKLLASIAEDYRKRAPYIAYLTRCRQGLQTTQAHLERLLQRVLRDKEVANRYFTTVCVRLLLESKEKKIREFIQDFQKLTAADDKTAQVEDFLQFLYGAMAQDVIWQNASEEQLQDAQLAIERSVMNRIFKLAFYPNQDGDILRDQVLHEHIQRLSKVVTANHRALQIPEVYLREAPWPSAQSEIRTISAYKTPRDKVQCILRMCSTIMNLLSLANEDSVPGADDFVPVLVFVLIKANPPCLLSTVQYISSFYASCLSGEESYWWMQFTAAVEFIKTIDDRK [GAPVD1]	-0.136	49.5	49.8	-0.131	1.88	3.33
MSPTQWDFPVELCCRPMAFVTLTGLDVVYNAVHRAVWDAFCANRRADRVPISFKVLPGDHEYPKCRPKRTSYEWYIPKGILKTGWMNKHLNLVPALVVVFYELDWDEPQWKEKQSECATRVEIVRQSLQGRNTKVAVVLIQKKTPLPPGEDVIASERAAALCNACELSGKSLFVLPHTDHLVGYIIRLENAFYEHAQTYYYTEIRRVKSHKEFLNKTTHQLLFVRHQFKIAFFSELKQDTQNALKNYRTAYNLVHELRAHETNILEIKTMAGFINYKICRLCFQHNTPLDAIAQFRKHIDLCKKKIGSAELSFEHDAWMSKQFQAFGDLFDEAIKLGLTAIQTQNPGFYYQQAAYYAQERKQLAKTLCNHEASVMYPNPDPLETQTGVLDFYGQRSWRQGILSFDLSDPEKEKVGILAIQLKERNVVHSEIIITLLSNAVAQFKKYKCPRMKSHLMVQMGEEYYYAKDYTKALKLLDYVMCDYRSEGWWTLLTSVLTTALKCSYLMAQLKDYITYSLELLGRASTLKDDQKSRIEKNLINVLMNESPDPEPDCDILAVKTAQKLWADRISLAGSNIFTIGVQDFVPFVQCKAKFHAPSFHVDVPVQFDIYLKADCPHPIRFSKLCVSFNNQEYNQFCVIEEASKANEVLENLTQGKMCLVPGKTRKLLFKFVAKTEDVGKKIEITSVDLALGNETGRCVVLNWQGGGGDAASSQEALQAARSFKRRPKLPDNEVHWDSIIIQASTMIISRVPNISVHLLHEPPALTNEMYCLVVTVQSHEKTQIRDVKLTAGLKPGQDANLTQKTHVTLHGTELCDESYPALLTDIPVGDLHPGEQLEKMLYVRCGTVGSRMFLVYVSYLINTTVEEKEIVCKCHKDETVTIETVFPFDVAVKFVSTKFEHLERVYADIPFLLMTDLLSASPWALTIVSSELQLAPSMTTVDQLESQVDNVILQTGESASECFCLQCPSLGNIEGGVATGHYIISWKRTSAMENIPIITTVITLPHVIVENIPLHVNADLPSFGRVRESLPVKYHLQNKTDLVQDVEISVEPSDAFMFSGLKQIRLRILPGTEQEMLYNFYPLMAGYQQLPSLNINLLRFPNFTNQLLRRFIPTSIFVKPQGRLMDDTSIAAA [TRAPPC11]	-0.13	50.7	50.3	-0.216	0.0283	-0.012
MEMKKKINLELRNRSPEEVTELVLDNCLCVNGEIEGLNDTFKELEFLSMANVELSSLARLPSLNKLRKLELSDNIISGGLEVLAEKCPNLTYLNLSGNKIKDLSTVEALQNLKNLKSLDLFNCEITNLEDYRESIFELLQQITYLDGFDQEDNEAPDSEEEDDEDGDEDDEEEEENEAGPPEGYEEEEEEEEEEDEDEDEDEDEAGSELGEGEEEVGLSYLMKEEIQDEEDDDDYVEEGEEEEEEEEGGLRGEKRKRDAEDDGEEEDD [ANP32E]	-0.46	46.5	50.1	0.1	2.17	4.82
MASTSYDYCRVPMEDGDKRCKLLLGIGILVLLIIVILGVPLIIFTIKANSEACRDGLRAVMECRNVTHLLQQELTEAQKGFQDVEAQAATCNHTVMALMASLDAEKAQGQKKVEELEGEITTLNHKLQDASAEVERLRRENQVLSVRIADKKYYPSSQDSSSAAAPQLLIVLLGLSALLQ [BST2]	-0.713	57.4	56.4	0.237	-4.66	-5.14
